Test results reported in article PMC8528721, “Hop2 interacts with the transcription factor CEBPα and suppresses adipocyte differentiation” (The Journal of Biological Chemistry, 2021).

Tests used:
His-CEBPα = His-CEBPα (UniProt P53566 1-359); assay: EMSA; no Hop2; EMSA: 5 pmol probe, room temperature, 10 min; buffer, salt and pH not given (refs 36, 55); conditions: protein: recombinant; tags: His; chain copies: 2; label: 32P; self-annealed, two copies of the strand; 20 bp duplex with 5' overhang 4 nt (GATC) at both ends
[1] = target: T1, endogenous CEBPβ (CCAAT enhancer binding protein beta) (mouse (endogenous in mouse visceral …, UniProt P28033-1 1-296)); assay: cell-based or functional assay
T1 sequence (looked up): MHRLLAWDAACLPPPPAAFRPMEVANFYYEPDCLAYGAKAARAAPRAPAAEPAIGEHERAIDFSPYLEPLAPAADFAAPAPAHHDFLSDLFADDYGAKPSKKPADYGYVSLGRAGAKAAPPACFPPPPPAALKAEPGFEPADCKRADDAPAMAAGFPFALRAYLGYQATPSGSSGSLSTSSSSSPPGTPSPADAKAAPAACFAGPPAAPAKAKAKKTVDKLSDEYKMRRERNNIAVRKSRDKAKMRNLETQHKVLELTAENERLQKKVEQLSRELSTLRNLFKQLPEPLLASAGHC

[2] = target: T2, CEBPδ in nuclear extracts of COS1 cells (UniProt Q00322 1-268); assay: cell-based or functional assay
T2 sequence (looked up): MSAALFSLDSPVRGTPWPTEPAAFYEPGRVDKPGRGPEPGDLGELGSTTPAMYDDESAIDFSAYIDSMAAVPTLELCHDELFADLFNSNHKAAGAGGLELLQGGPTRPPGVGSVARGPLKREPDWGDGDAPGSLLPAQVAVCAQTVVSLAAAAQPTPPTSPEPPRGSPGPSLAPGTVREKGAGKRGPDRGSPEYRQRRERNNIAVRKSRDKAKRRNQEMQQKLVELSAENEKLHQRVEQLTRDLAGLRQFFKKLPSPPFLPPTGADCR

Flag-tagged CEBPα = Flag-tagged CEBPα (UniProt P53566 1-359); assay: cell-based or functional assay
Chain of Flag-tagged CEBPα (P53566 whole entry): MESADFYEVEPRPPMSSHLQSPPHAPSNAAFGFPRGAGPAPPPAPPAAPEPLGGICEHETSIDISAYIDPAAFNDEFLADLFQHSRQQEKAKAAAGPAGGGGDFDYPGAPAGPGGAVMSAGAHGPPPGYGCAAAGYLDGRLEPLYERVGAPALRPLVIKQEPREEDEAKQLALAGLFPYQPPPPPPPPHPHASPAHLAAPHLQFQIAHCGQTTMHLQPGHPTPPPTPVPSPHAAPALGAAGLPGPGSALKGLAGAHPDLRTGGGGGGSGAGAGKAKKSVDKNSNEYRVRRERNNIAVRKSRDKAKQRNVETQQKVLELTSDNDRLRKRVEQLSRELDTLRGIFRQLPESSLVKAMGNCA

Chain of His-CEBPα (P53566 whole entry): as above

B1: CEBP consensus palindrome probe (dsDNA)
DNA 1: GATCTGCAGATTGCGCAATCTGCA
DNA 2: GATCTGCAGATTGCGCAATCTGCA
binding result (His-CEBPα): binds

B2: hemagglutinin (HA)-tagged Hop2 (natural protein, UniProt O35047 1-217, looked up)
chain: MSKSRAEAAAGAPGIILRYLQEQNRPYSAQDVFGNLQKEHGLGKAAVVKALDQLAQEGKIKEKTYGKQKIYFADQNQFDTVSDADLHGLDASIVALTAKVQSLQQSCRHMEAELKELTSALTTPEMQKEIQELKKECAQYTERLKNIKAATNHVTPEEKEKVYRDRQKYCKEWRKRKRMTTELCDAILEGYPKSKKQFFEEVGIETDEDHNVLLPDP
C3-Luc reporter activity in COS1 cells cotransfected with CEBPβ and Hop2 (4.5-fold brought down to 3.1-fold) [1]: 31 % suppression
Leptin-Luc reporter activity in COS1 cells cotransfected with CEBPβ and Hop2 (21.0- to 1.7-fold) [1]: 92 % inhibition
C3-Luc reporter activity in COS1 cells cotransfected with CEBPδ and Hop2 (5.7-fold brought down to 2.2-fold) [2]: 61 % suppression
Leptin-Luc reporter activity in COS1 cells cotransfected with CEBPδ and Hop2 (31.9- to 1.4-fold) [2]: 97 % inhibition
C3-Luc reporter activity in COS1 cells cotransfected with CEBPα and Hop2 (6.1-fold brought down to 1.6-fold) (Flag-tagged CEBPα): 74 % suppression
Leptin-Luc reporter activity in COS1 cells cotransfected with CEBPα and Hop2 (35.7- to 12.2-fold) (Flag-tagged CEBPα): 66 % inhibition
